Data on two compounds can be found in patent US20110111040A1, “POLYELECTROLYTE-ENCAPSULATED GOLD NANOPARTICLES CAPABLE OF CROSSING BLOOD-BRAIN BARRIER” (priority 2008, published 2011).

The conditions of series [1]: albumin alone; stated without own test; cited from earlier work.
A short description of series [2]: Electrophoretic mobility (ue) measurements as a function of pH. It counts as physicochemical. How it is done:
Electrophoretic mobility (ue) measurements were performed in a Malvern Zetasizer 2000 apparatus (Malvern Instruments, England) at room temperature. Measurements were carried out 24 hours after the preparation of the suspensions, and the pH was readjusted immediately before the mobility was measured. In FIG. 1. electrophoretic mobility as a function of the pH of the gold nanoparticles, creatine, gold-creatine composite particles, and albumin are shown. As observed, the gold nanoparticles present a negative electrophoretic mobility (ue) over the whole range of pH, characteristic of the citrate molecules adsorbed on them, becoming more negative with pH increase. […] On the contrary, albumin molecules present an isoelectric point between pH 4.5-5, becoming more negative with pH increase.

Consider albumin, for which the “crossing of the blood brain barrier” value in series [1] is reported as “not able to cross the blood brain barrier”. In addition, the isoelectric point in series [2] is reported as 4.5-5 pH.

Consider `CN(CC(=O)O)C(=N)N` [Creatine], for which the “electrophoretic mobility (ue)” value in series [2] (acidic conditions) is given as “very close to zero”; in series [2] (whole range of pH), “negative”.
